# Results taken from article PMC3581772, “Protease-activated alpha-2-macroglobulin can inhibit amyloid formation via two distinct mechanisms” (Febs Letters, 2013).
# B1: I59T human lysozyme (natural protein, UniProt P61626 19-148, looked up)
# chain: KVFERCELARTLKRLGMDGYRGISLANWMCLAKWESGYNTRATNYNAGDRSTDYGIFQTNSRYWCNDGKTPGAVNACHLSCSALLQDNIADAVACAKRVVRDPQGIRAWVAWRNRCQNRDVRQYVQGCGV
# notes: human lysozyme, non-natural variant I59T; monomer 14.7 kDa; also called I59T lysozyme; source: expressed and purified as previously described [16]
# Biological target: the molecule itself
# Test: thioflavin T fluorescence of fibril formation; I59T lysozyme 6.8 μM, 0.1 M citrate buffer pH 5.0, 25 μM ThT, 60 °C, with stirring; self-association into fibrils
protein,measurement,value
B1,binding result,binds
